{"source": "patent US20210196823A1", "about": "“Methods of Treating Metabolic Disease” (Pfizer Inc., priority 2018, published 2021)", "molecules": {"B1": {"name": "mouse ERFE: recombinant mouse erythroferrone (SEQ ID NO: 2); monoFC-muErfe is a monomeric FC murine ERFE fusion (protein, listed as Mus musculus)", "chain": "MASRRPVGARTLLACASLLAAMGLGVPESAEPVGTHARPQPPGAELPAPPANSPPEPIAHAHSVDPRDAWMLFVKQSDKGINSKRRSKARRLKLGLPGPPGPPGPQGPPGPFIPSEVLLKEFQLLLKGAVRQRESHLEHCTRDLPASGSPSRVPAAQELDSQDPGALLALLAATLAQGPRAPRVEAAFHCRLRRDVQVDRRALHELGIYYLPEVEGAFHRGPGLNLTSGQYTAPVAGFYALAATLHVALTEQPRKGPTRPRDRLRLLICIQSLCQHNASLETVMGLENSSELFISVNGVLYLQAGHYSVFLDNASGSSLTVRSGSHFSAILLGL"}}, "key": {"[1]": {"tested_on": "SMAD1/5/8 phosphorylation in Huh7 cells", "experiment": "Western blot of SMAD1/5/8 phosphorylation in Huh7 cells", "assay_type": "cell-based", "protocol": "(d) ERFE effects on BMP/SMAD signalling measured by SMAD 1/5/8 phosphorylation: To confirm the suppression of BMP/SMAD signalling, we analysed phosphorylation of SMAD1/5/8, required to transduce the signal leading to HAMP upregulation. Analysis was carried out by Western blot according to the following methodology: Cells were lysed at 4° C. using RIPA buffer (Thermo Scientific) containing protease/phosphatase inhibitor (Cell Signalling). Lysates were denatured at 95° C. and separated on a 10% SDS polyacrylamide gel (Bio-Rad), following the manufacturer's instruction. Protein sizes were estimated by using the Novex Sharp Pre-Stained Protein Ladder (life technologies). Protein was transferred to a nitrocellulose membrane, then blocked with milk/TBS for 1 h. Antibodies used were anti-P-SMAD 1/5 (S463s/465)/9(S465/467) (Cell signalling 13820S 1:500), anti-Smad1 (Cell Signalling 6944S 1:500), anti-β-actin-peroxidase (Sigma A3854 1:10 000), and Anti-rabbit IgG HRP conjugated (RnD systems HAP008 1:5000). […] In this case Huh7 cells were treated with mouse ERFE (10 μg/ml) or BMP6 and LDN, a small molecule inhibitor of BMPs, (100 nM), alone or in combination, for 30 min and pSMAD/SMAD ratios values were calculated by densitometry. Erythroferrone caused a decrease in SMAD phosphorylation relative to non-treated cells (FIG. 3D)."}, "HepG2 cells": {"tested_on": "HepG2 cells", "experiment": "HAMP and ID1 qRT-PCR in HepG2 cells treated with BMPs with or without mouse ERFE", "assay_type": "cell-based", "settings": "2 nM BMP 2/6, BMP6 or BMP7 + 10 μg/ml mouse ERFE, 6 h, serum-free media", "protocol": "(b) Gene expression microarray: Microarray analysis of Huh7 cells treated with mouse or human erythroferrone was carried out to test the activity of erythroferrone on the BMP/SMAD signalling pathway. Generally cell treatments were carried out according to the following protocol: Huh7 and HepG2 were cultured in Dulbecco's Modified Eagle's Medium—High Glucose (Sigma), supplemented with 10% Fetal Bovine Serum (Sigma), 1% Penicillin-Streptomycin (Sigma) and 1% L-Glutamine (Sigma), unless otherwise indicated. Cells were plated 24 h before treatments in 24-well (gene expression analysis) or 12-well (protein analysis) cell culture plates. At the time of treatment, cells were washed with PBS and fresh media was added.\n(c) RNA isolation, cDNA synthesis and qRT-PCR: Suppression of several BMP-target genes: HAMP, ID1, ID3, SMAD6 and SMAD7 was further confirmed by qRT-PCR. Cells were lysed and RNA was isolated using the RNeasy Plus kit (Qiagen), followed by RNA quantification and quality assessment using Nanodrop (Thermo Fisher). cDNA was synthesized using the High Capacity RNA-to-cDNA kit (Applied Biosystems). Gene expression was assessed using quantitative real-time PCR with Taqman Gene Expression Master Mix and inventoried Taqman Gene expression assays (Applied Biosystems) specific for the genes of interest according to the manufacturer's instructions. […]"}, "[2]": {"tested_on": "BMP-target genes in the liver", "experiment": "Short-term ERFE treatment in WT mice: liver BMP-target genes, serum and liver iron", "assay_type": "in vivo", "settings": "200 μg i.v., 3 h", "excerpt": "(a) Animal studies: Wild-type male C57BL/6 mice were purchased from Harlan Laboratories, UK. Embryos from Fam132b+/− mice on a mixed Sv129/C57BL/6 background were obtained from the Mutant Mouse Regional Resource Center (MMRRC) at UC Davis (strain 66; 12955-Fam132btm1Lex/Mmucd, ID MMRRC:032289-UCD) and backcrossed onto C57BL/6 background using marker-assisted accelerated backcrossing. Heterozygote pairs were mated to generate homozygous animals from which knockout and wild-type colonies were maintained. Animals were housed in individually ventilated cages in the Department of Biomedical Services, University of Oxford, and provided access to normal chow (163 ppm of iron, Special Diets Services 801700) and water ad libitum. All experiments were performed in 9-13 weeks old male mice. For EPO treatments, mice were injected intraperitoneally with 200 IU recombinant human EPO (Bio-Rad) in water or vehicle (water) daily for three consecutive days and culled 24 h after the last EPO injection. For ERFE treatments, mice were injected intravenously with 200 μg of recombinant mouse ERFE or vehicle (saline) and culled 3 h after treatment. Mice were euthanized in increasing CO2 concentrations.\n(b) Serum iron analysis: Blood was taken by cardiac puncture immediately after euthanising mice and collected in BD EDTA or SST (serum) Microtainer tubes. Serum was prepared by centrifugation of clotted blood at 8000×g for 3 minutes in BD Microtainer SST tubes (Beckton Dickinson) and used for serum iron quantification using a Abbott Architect c16000 automated analyzer (Abbott Laboratories).\n(c) Tissue non-heme iron measurement: Liver tissues were dried for 4 hours at 100° C., weighed and digested in 10% tricholoroacetic acid (Sigma)/30% hydrochloric acid (Sigma) for 20 hours at 65° C. A standard curve was generated using a dilution series of ferric ammonium citrate (Sigma) in the 10% (w/v) trichloroacetic acid/30% hydrochloric acid mixture. Non-heme iron content was determined colorimetrically by measuring absorbance at 535 nm following reaction with chromogen reagent containing 0.1% (w/v) bathophenoldisulphonic acid (Sigma)/0.8% thioglycolic acid (Sigma).\nThree hours after the injections, mice were culled and serum and liver iron measured. […] Additionally, three hours after the injections, mice were culled and the liver harvested for analysis of liver gene expression for BMP-target genes."}}}
{"molecule": "B1", "values": [{"measurement": "SMAD phosphorylation after BMP6 stimulation", "setting": "[1]; Huh7, mouse ERFE 10 μg/ml with BMP6, 30 min", "result": "blunted the increase"}, {"measurement": "SMAD 1/5/8 phosphorylation relative to non-treated cells", "setting": "[1]; Huh7, mouse ERFE 10 μg/ml, 30 min, baseline", "result": "decrease"}, {"measurement": "HAMP and ID1 expression / BMP/SMAD signalling in BMP-treated HepG2 cells", "setting": "HepG2 cells", "result": "suppresses"}, {"measurement": "liver iron", "setting": "[2]", "result": "not affected"}, {"measurement": "serum iron", "setting": "[2]", "result": "not affected"}, {"measurement": "serum hepcidin levels", "setting": "[2]; in comparison to the control", "result": "reduced"}, {"measurement": "liver expression of Hamp and BMP-target genes", "setting": "[2]; vs inactive control Clip huERFE", "result": "significantly reduced"}]}
